Test results from patent publication US20220195015A1 (published 2022).

B1: C556 (antibody, V domains shown)
VH: QVQLVQSGAEVKKPGASVKVSCKASGYTFTYYYMHWVRQAPGQGLEWMGIINPSGGSTSYAQKFQGRVTMTRDTSTSTVYMELSSLRSEDTAVYYCARPLLPGETGSLNRLDYWGQGTLVTVSS
VL: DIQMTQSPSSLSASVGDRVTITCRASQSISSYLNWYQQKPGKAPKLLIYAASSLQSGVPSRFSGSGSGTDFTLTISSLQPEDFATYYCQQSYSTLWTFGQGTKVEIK
B2: C558 (antibody, V domains shown)
VH: EVQLVQSGAEVKKPGESLKISCKVSGYTFTNYWIGWVRQMPGKGLEWMGIIYPGDSDTRYSPSFQGQVTISADKSIITAYLQWSSLKASDTAMYYCARVPSSSDYGDYGGFEYWGQGTLVTVSS
VL: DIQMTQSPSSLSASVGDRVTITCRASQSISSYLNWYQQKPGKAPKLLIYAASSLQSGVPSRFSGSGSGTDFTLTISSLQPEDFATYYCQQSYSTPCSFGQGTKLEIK
B3: C559 (antibody, V domains shown)
VH: EVQLVQSGAEVKKPGESLKISCKVSGYTFTNYWIGWVRQMPGKGLEWMGIIFPGDSDTRYSPSFQGQVTISADRSITTAYLQWRSLKASDTAMYYCARVPSSSDYGDYGGFEYWGQGTLVTVSS
VL: DIQMTQSPSSLSASVGDRVTITCRASQTITIYLNWYQQKPGKAPKLLIYAASSLQSGVPSRFSGSGSGTDFTLTISSLQPEDFATYYCQQSYSTPCSFGQGTKLEIK
B4: C540 (antibody, V domains shown)
VH: EVQLVESGGGLVQPGGSLRLSCAASGFTFRNYDMHWVRQVAGKGLEWVSAIGTSGDTYYPDSVKGRFTISRENAKNSVYLQMNNLRAGDTAVYFCVRDREISGWTGWYFDLWGRGTLVTVSS
VL: DIQMTQSPSSLSASVGDRVTITCRASQTIHNYLNWYQQIPGKAPRLLIYATNTLQSGVPSRFSGSGSGTDFTLTITGLQPEDFATYYCQQSYSTPPITFGQGTRLEIK
B5: C537 (antibody, V domains shown)
VH: QLQLQESGPGLVKPSETLSLTCTVSGGAISSRNYHWGWIRQPPGKGLEWIGSIYYSGSTYYSPSLKSRVTISVDTSKNQFSLRLSSVTAADTAVYYCARLETSGWYTEDVFDIWGQGTMVTVSS
VL: DIQMTQSPSSLSASVGDRVTITCRASQSISSYLNWYQQKPGKAPKLLIYAASSLQSGVPSRFSGSGSGTDFTLTISSLLPEDFATYYCQRSYSAMYTFGQGTKLEIK
B6: C543 (antibody, V domains shown)
VH: QVQLVESGGGVVQPGRSLRLSCTASGFTFSTAGMHWVRQAPGKGLEWVAVISYDGSNKDYADSVKGRFTISRDNSKSTLYLQMNSLRPEDTAVYYCAKDTPGGDDIMTGWGLYGMDVWGQGTTVTVSS
VL: DIQMTQSPSSLSASVGDRVTITCRASQSISSYLNWYHQKPGKAPKLLIYAAISLQSGVPSRFSGSGFGTDFTLTISSLQPEDFAIYYCQQSYSTPWTFGQGTKVEIK
B7: C547 (antibody, V domains shown)
VH: QVQLVESGGGVVQPGRSLRLSCAASGFTFSSYGMHWVRQAPGKGLEWVAVISYDGSNKYYADSVKGRFTISRDNSKNTLYLQMNSLRAEDTAVYYCAKDTPGGDDILTGWGLYGMDVWGQGTTVTVSS
VL: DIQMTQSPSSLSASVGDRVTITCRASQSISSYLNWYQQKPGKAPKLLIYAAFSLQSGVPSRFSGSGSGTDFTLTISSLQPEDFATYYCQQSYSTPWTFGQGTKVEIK
B8: C536 (antibody, V domains shown)
VH: QVQLVESGGGLVKPGRSLRLSCTVSGFTFGAYAMSWFRQAPGKGLEWVGFIRSKTYGGTTEYAASLKGRFTISRDDSKSIAFLQMNSLKTEDTAVYFCSRGGYYDGSPYYWNRPDAFDIWGLGTMVTVS
VL: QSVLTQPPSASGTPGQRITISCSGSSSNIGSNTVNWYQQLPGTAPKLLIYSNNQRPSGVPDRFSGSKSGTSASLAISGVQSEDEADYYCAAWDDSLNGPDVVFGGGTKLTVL
B9: C545 (antibody, V domains shown)
VH: EVQLLESGGGLVKPGGSLRLSCAASGFTFSDYSMTWVRQAPGKGLEWVSFISSSSTYIYYADSVKGRFTISRDNAKSSLYLQMNRLRAEDTAVYYCTRVQVGARGWADYWGQGTLVTVSS
VL: NFMLTQPLSVSESPGKTVTISCTRSSGSIASNYVQWYQQRPGGAPTTVIYEDTQRPSGVPDRFSGSIDSSSNSASLTISGLKTEDEADYYCQSCDTINWVFGGGTKLTVV
B10: C539 (antibody, V domains shown)
VH: EVQLVESGGGLVQPGRSLRLSCAASGFTFDDYALHWVRQAPGKGLEWVSGISWNGDSIGYADSVKGRFTISRDNAKNSLSLQMNSLTAEDTALYYCAKGVEYSSSSNCDYWGQGTLVTVSS
VL: DIQMTQSPSSVSASVGDRVTITCRASQDISSWLAWYQQKPGKAPKLLISLASGLQSGVPSRFSGSGSETDFTLTISSLQPEDFATYYCQQTNSFPLTFGGGTKVEI
B11: C538 (antibody, V domains shown)
VH: QLQLQESGPGLVKPSETLSLTCTVSGGSISSSSYYWAWIRQPPGKGLEWIGNIYYSGITYYSPSLKSRVTISVDTSKNQFSLKLRSVTAADTAVYYCARQHRYGSGSSELLWGQGTLVTVSS
VL: QSALTQPPSASGSPGQSVTISCTGTSSDVGSYNYVSWYQQHPGKAPKLMIYEVTKRPSGVPDRFSGSKSGNTASLTVSGLQADDEADYYCSSYAGSSNLIFGGGTKLTVL
B12: C544 (antibody, V domains shown)
VH: QVQLVQSGAEVKKPGASVKVSCKASGYTFSSHDINWVRQATGQGLEWVGWMNPNSGNTGSAQSFQGRVTLTRNASISTAYLELSSLRSEDTAVYFCARGFSLTWYFDLWGRGTLVTVSS
VL: SYELTQPPSVSAAPGKTARITCGGNNIGGKNVHWYQQKPGQAPVLVVFDDSDRPSGIPERFSGSNSGNTATLTISRVEAGDEADYYCQLWDSTSDHPDVVFGGGTQLTVL
B13: C560 (antibody, V domains shown)
VH: EVQLVESGGGLVQPGRSLRLSCAASGFTFDDYAMHWVRQAPGKGLEWVSGVSWNSGTIGYADSVKGRFTISRDNAKNSLYLQMNSLRAEDTALYYCAKIADIVRAYDFWSGQHFDAFDIWGQGTMVTVSS
VL: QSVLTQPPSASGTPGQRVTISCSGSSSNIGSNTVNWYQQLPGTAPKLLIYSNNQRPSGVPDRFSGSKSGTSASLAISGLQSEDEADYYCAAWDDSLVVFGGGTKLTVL
B14: C561 (antibody, V domains shown)
VH: EVQLVESGGGLVQPGRSLRLSCAASGFTFDDYAIHWVRQAPGKGLEWVSGVSWNSGTIGYADSVKGRFFISRDNAKNSLYLQMNSLRAEDTAWYYCAKIADLVGAYDFRSGQHFAAFDVWGQGTMVTVSS
VL: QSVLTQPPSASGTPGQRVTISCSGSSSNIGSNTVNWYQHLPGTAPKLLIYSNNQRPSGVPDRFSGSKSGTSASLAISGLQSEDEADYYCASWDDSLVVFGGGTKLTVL
B15: C549 (antibody, V domains shown)
VH: QVQLVQSGAEVKKPGSSVKVSCKASGGTFSTSAISWVRQAPGQGLEWMGGIIPFFGTPNYAQKFQGRVTIIADESTTTAYMELSGLRFEDSAVYYCARREPYGPRDYYYFFGMDVWGPGTTVTVSS
VL: QSALTQPPFASASLGASVTLTCTLSSDYSYYKVDWYQQRPGKGPRFVIRVGPGGIVGSKGDGFPDRFSVLGSGLNRSLTINNIQEEDEGDYHCGADEGSGGTFVGVFGGGTKLTV
B16: C555 (antibody, V domains shown)
VH: EVQLVESGGGLVKPGGSLRLSCAASGLTFSTTWMSWVRQAPGKGLEWVGRIKSKGDGGTTDFAGPVKGRFSISRDDSKNTLYLHMNSLKTEDTAVYYCTTDDPGSYYYGMDVWGQGTTVTVSS
VL: QTVVTQEPSLTVSPGGTVTLTCASSTGAVTSGHYPYWFQQKPGQAPRTLIYATSNKHSWTPARFSGSLLGGKAALTLSGAQPEDEADYYCLLSYSGARVFGGGTKLTVL
B17: C534 (antibody, V domains shown)
VH: QVQLVQSGAEVKKPGSSVRVSCKASGGTFSRNVISWVRQAPGQGLEWMGGIIPMFATANYAQKFQGRVTITADESSSTAYMELSSLRSEDTAVYYCAREDFILVSAPIRENSYYYYGMDVWGQGTTVTVSS
VL: EIVLTQSPGTLSLSPGERATLSCRASQSVSSNYLAWYQQKPGQAPRLLIYDASSRATGIPDRFSGSGSGTDFTLTISRLEPEDFAVYYCQQYGGSPRTFGQGTKVEIK
B18: C546 (antibody, V domains shown)
VH: EVQLLESGGGLVHPGGSLRLSCAASGFTFSTYAMHWVRQAPGKGLEWVSAISGSGTGTFYADSVKGRFSISRDNSKNTLYLQMNSLRAEDTAVYYCATERIAVSDTRMYNWFDPWGQGTLVTVSS
VL: DIQMTQSPSSLSASVGDRVTLTCRASQGISTYLNWYQQKPGKAPNLLIYAASSLQSGVPSRFSGSGSGTDFTLTISSLQPEDFATYYCQQSYSAPPWTFGQGTKVEIK
B19: C548 (antibody, V domains shown)
VH: QVQLVQSGAEVKKPGSSVKVSCKASGGTFSSYAISWVRQAPGQGLEWMGGIIPIFGTANYAQKFQGRVTITADESTSTAYMELSSLRSEDTAVYYCARREAYGPRDYYYYYGMDVWGQGTTVTVSS
VL: QSALTQPPSASASLGASVTLTCTLSSGYSNYKVDWYQQRPGKGPRFVMRVGTGGIVGSKGDGIPDRFSVLGSGLNRYLTIKNIQEEDESDYHCGADQGSGSNFVGVFGGGTKLTVL
B20: C535 (antibody, V domains shown)
VH: EVQLVESGGALVQPGRSLRLSCAASGFTFDDYAMHWVRQAPGKGLEWVSSISWNGVSIGYADSVRGRFTISRDNAKNSLYLQMNSLKIGDTAFYYCARGLDGSSSASPDSWGQGTLVTVSS
VL: DIQMTQSPSSVSASVGDRVTITCRASQGIGSWLAWYQQKPGKAPKLLIYLASSLQSGVPSRFSGSGSGTYFTLTISGLQPEDFATYYCQQGNSFPLTFGGGTKVEIK
B21: C553 (antibody, V domains shown)
VH: QVQLVESGGGVVQPGRSLRLSCAASGFTFSNYEIHWVRQAPGKGLEWVAGISYDGSTKYYADSVKGRFTISRDNSKNTLYLQMNSLRPEDTAVFYCARAGTTNSDYFDYWGQGTLVTVSS
VL: SYELTQPPSVSVAPGMTARITCGGNTIGSKSVHWYQQKAGQAPVLVIYYDSDRPSGIPERFSGSNSGNTATLTISRVEAGDEADYYCQVWDSSSVLWVFGGGTKLTVL
B22: C533 (antibody, V domains shown)
VH: EVQLVESGGSLVKPGGSLRLSCVASGLTFNHAWMSWVRQAPGKGLEWVGRIKSKIDGGTTDYAAPVKGRFTISRDDSKSTQYLQMNSLKTEDTAVYYCTTDCFWRLGGTTCYEHDAFDVWGQGTMVTVSS
VL: DIQMTQSPSSLSASVGDRVTITCRASQAIATFLNWYQQKPGKAPKLLIYAASSLQSGVPSRFSGSGSGTDFTLTISNLQPEDFATYYCQQSYNSLHFGGGTKVEIK
B23: C542 (antibody, V domains shown)
VH: EVQLVESGGGLVQPGGSLRLSCAASGLTVTSNYMSWVRQAPGRGLEWVSLIYPGGTTYYADSVKGRFTVSRDNSKNTLYLQMDSLRAEDTGVYYCARETLGRGGDCWGQGTLVTVSS
VL: DIQMTQSPSSLSASVGDRVTITCQASQDISNFLNWYQQKPGKAPKLLIYDASNLETGVPSRFSGSRSGTDFTFTISSLQPDDIATYYCQQYDNLPRSFGQGTKLEIK

molecular target: SARS-CoV-2 spike protein receptor binding domain (RBD) (SARS-CoV-2, UniProt P0DTC2 319-539); experiment: ELISA, RBD coated on plate, mAb titrated

Point of comparison: B10, EC50 1.3 ng/mL. Against it:
- B1 — within 1.5-fold, 1.36 ng/mL
- B2 — 1.9-fold higher, 2.41 ng/mL
- B3 — 2.2-fold higher, 2.89 ng/mL
- B4 — 2.2-fold higher, 2.9 ng/mL
- B5 — 32-fold higher, 41.9 ng/mL
- B6 — within 1.5-fold, 1.28 ng/mL
- B7 — within 1.5-fold, 1.78 ng/mL
- B8 — within 1.5-fold, 1.88 ng/mL
- B9 — 2.8-fold higher, 3.68 ng/mL
- B11 — 3-fold higher, 3.95 ng/mL
- B12 — 1.8-fold higher, 2.34 ng/mL
- B13 — within 1.5-fold, 1.6 ng/mL
- B14 — within 1.5-fold, 1.53 ng/mL
- B15 — within 1.5-fold, 1.76 ng/mL
- B16 — 2.2-fold higher, 2.88 ng/mL
- B17 — 3.7-fold higher, 4.85 ng/mL
- B18 — 2.7-fold higher, 3.57 ng/mL
- B19 — within 1.5-fold, 1.72 ng/mL
- B20 — 1.9-fold higher, 2.46 ng/mL
- B21 — within 1.5-fold, 1.19 ng/mL
- B22 — within 1.5-fold, 1.61 ng/mL
- B23 — within 1.5-fold, 1.07 ng/mL
